Measured values reported in patent US20220185895A1.

Columns and labels:
[1] = target: human CD94 (Natural killer cells antigen CD94) (human) (UniProt Q13241); test: flow cytometry with APC MESF bead calibration, CD94dim T-LGLL patient PBMC, CD3+CD16- T lymphocytes [Cont.]
[2] = target: human CD94 (Natural killer cells antigen CD94) (human) (UniProt Q13241); test: flow cytometry with APC MESF bead calibration, average over healthy donor PBMC, CD3+CD8+ (CD94+) T cells
[3] = target: human CD94 (Natural killer cells antigen CD94) (human) (UniProt Q13241); test: flow cytometry with APC MESF bead calibration, average over healthy donor PBMC, CD3-CD57+ NK cells
[4] = target: human CD94 (Natural killer cells antigen CD94) (human) (UniProt Q13241); test: flow cytometry, CLPD-NK patient PBMC, CD3+CD16+ T-LGL
[5] = target: human CD94 (Natural killer cells antigen CD94) (human) (UniProt Q13241); test: flow cytometry with APC MESF bead calibration, healthy donor PBL, CD3+CD8+ T cells
[6] = target: human CD94 (Natural killer cells antigen CD94) (human) (UniProt Q13241); test: flow cytometry, normal liver, CD45+CD3+CD4+ T cells
[7] = target: human CD94 (Natural killer cells antigen CD94) (human) (UniProt Q13241); test: flow cytometry, CD94bright T-LGLL patient PBMC, CD3+CD16- T lymphocytes [Cont.]
[8] = target: human CD94 (Natural killer cells antigen CD94) (human) (UniProt Q13241); test: flow cytometry with APC MESF bead calibration, normal liver, CD45+CD3+CD8+ T cells
[9] = target: human CD94 (Natural killer cells antigen CD94) (human) (UniProt Q13241); test: flow cytometry, healthy donor PBL, CD3+CD8+ T cells
[10] = target: human CD94 (Natural killer cells antigen CD94) (human) (UniProt Q13241); test: flow cytometry with APC MESF bead calibration, CD94bright T-LGLL patient PBMC, CD3+CD16+ leukemic cells [Cont.]
[11] = target: human CD94 (Natural killer cells antigen CD94) (human) (UniProt Q13241); test: flow cytometry with APC MESF bead calibration, normal liver, NK cells (panel headed CD45+CD3+CD56+)
[12] = target: human CD94 (Natural killer cells antigen CD94) (human) (UniProt Q13241); test: flow cytometry with APC MESF bead calibration, CD94bright T-LGLL patient PBMC, CD3+CD16- T lymphocytes [Cont.]
[13] = target: human CD94 (Natural killer cells antigen CD94) (human) (UniProt Q13241); test: flow cytometry with APC MESF bead calibration, average over healthy donor PBMC, CD3-CD56+ NK cells
[14] = target: human CD94 (Natural killer cells antigen CD94) (human) (UniProt Q13241); test: flow cytometry with APC MESF bead calibration, CLPD-NK patient PBMC, CD3+CD16+ T-LGL
[15] = target: human CD94 (Natural killer cells antigen CD94) (human) (UniProt Q13241); test: flow cytometry with APC MESF bead calibration, CD94dim T-LGLL patient PBMC, CD3-CD16+ NK cells [Cont.]
[16] = target: human CD94 (Natural killer cells antigen CD94) (human) (UniProt Q13241); test: flow cytometry, CD94dim T-LGLL patient PBMC, CD3+CD16- T lymphocytes [Cont.]
[17] = target: human CD94 (Natural killer cells antigen CD94) (human) (UniProt Q13241); test: flow cytometry with APC MESF bead calibration, normal liver, CD45+CD3+CD4+ T cells
[18] = target: human CD94 (Natural killer cells antigen CD94) (human) (UniProt Q13241); test: flow cytometry with APC MESF bead calibration, healthy donor PBL, CD3-/CD57+ NK cells
[19] = target: human CD94 (Natural killer cells antigen CD94) (human) (UniProt Q13241); test: flow cytometry with APC MESF bead calibration, healthy donor PBL, CD3-/CD16+ NK cells
[20] = target: human CD94 (Natural killer cells antigen CD94) (human) (UniProt Q13241); test: flow cytometry with APC MESF bead calibration, CLPD-NK patient PBMC, CD3+CD8+ T cells
[21] = target: human CD94 (Natural killer cells antigen CD94) (human) (UniProt Q13241); test: flow cytometry with APC MESF bead calibration, average over healthy donor PBMC, CD3-CD16+ NK cells
[22] = target: human CD94 (Natural killer cells antigen CD94) (human) (UniProt Q13241); test: flow cytometry with APC MESF bead calibration, healthy donor PBL, CD3-/CD56+ NK cells
[23] = target: human CD94 (Natural killer cells antigen CD94) (human) (UniProt Q13241); test: flow cytometry with APC MESF bead calibration, CD94bright T-LGLL patient PBMC, CD3-CD16+ NK cells [Cont.]
[24] = target: human CD94 (Natural killer cells antigen CD94) (human) (UniProt Q13241); test: flow cytometry, normal liver, CD45+CD3+CD8+ T cells
[25] = target: human NKG2A (NKG2-A/NKG2-B type II integral membrane protein) (human) (UniProt P26715); test: cell-based or functional assay
UniProt P26715, sequence (P26715 whole entry): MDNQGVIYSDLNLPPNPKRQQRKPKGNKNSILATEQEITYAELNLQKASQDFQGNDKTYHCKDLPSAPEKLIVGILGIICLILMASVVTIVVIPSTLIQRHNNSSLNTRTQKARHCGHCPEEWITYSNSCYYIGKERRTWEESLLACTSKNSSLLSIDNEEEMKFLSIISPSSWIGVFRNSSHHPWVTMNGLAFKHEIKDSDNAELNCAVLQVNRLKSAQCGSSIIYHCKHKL

UniProt Q13241, sequence (Q13241 whole entry): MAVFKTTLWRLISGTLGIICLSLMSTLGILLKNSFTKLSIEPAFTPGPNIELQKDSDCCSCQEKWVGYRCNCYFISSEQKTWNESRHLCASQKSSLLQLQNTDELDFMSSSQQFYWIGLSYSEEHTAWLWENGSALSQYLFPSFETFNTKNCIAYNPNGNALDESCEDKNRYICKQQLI

“anti-CD94 antibody clone HP-3D9, APC-conjugated (BD Bioscience 559876)” gave a CD94 receptor number (receptors per cell) [1] of 33000, an Antibody binding capacity (receptors per cell) [2] of 45000 and an Antibody binding capacity (receptors per cell) [3] of 73000. The % positive cells [4] was 16%, the CD94 receptor number (receptors per cell) [5] was 28000 and the % positive cells [6] was 13%. The % positive cells [7] was 31%, the CD94 receptor number (receptors per cell) [8] was 97000 and the % positive cells [9] was 30%. For the same substance, the CD94 receptor number (receptors per cell) [10] was 177000, the CD94 receptor number (receptors per cell) [11] was 195000 and the CD94 receptor number (receptors per cell) [12] was 172000. For the same substance, the Antibody binding capacity (receptors per cell) [13] was 117000, the CD94 receptor number (receptors per cell) [14] was 51000 and the CD94 receptor number (receptors per cell) [15] was 14000. It also gave a % positive cells [16] of 14%, a CD94 receptor number (receptors per cell) [17] of 55000 and a CD94 receptor number (receptors per cell) [18] of 39000. It also gave a CD94 receptor number (receptors per cell) [19] of 45000, a CD94 receptor number (receptors per cell) [20] of 28000 and an Antibody binding capacity (receptors per cell) [21] of 77000. The CD94 receptor number (receptors per cell) [22] was 51000, the CD94 receptor number (receptors per cell) [23] was 51000 and the % positive cells [24] was 25%.
anti-NKG2A Z199 fucosylated antibody was tested, and the ADCC assay, depletion of CD3-CD56bright NK cells in fresh healthy donor PBMCs, EC50 [25] was 40 ng/mL.
Work on “anti-NKG2A Z199 non-fucosylated antibody” yielded an ADCC assay, depletion of CD3-CD16+ NK leukemic cells in frozen CLPD-NK patient PBMCs, EC50 [25] of 3 ng/mL, an ADCC assay, depletion of CD3-CD56bright NK cells in fresh healthy donor PBMCs, EC50 [25] of 3 ng/mL and an ADCC assay, potency against the fucosylated Z199 antibody [25] of 13 times.
